Measured values reported in patent publication US20220396632A1 (VERSEAU THERAPEUTICS, published 2022).
Substitutions are numbered along the chain they refer to. No end group written: not given here.

What was measured:
PSGL-1(49-56)-Biotin = target: T1, PSGL-1(49-56)-Biotin (human, UniProt Q14242); test: ELISA, plate-immobilized biotin peptide
T1 construct: synthetic peptide; also called short PSGL-1 49-56 peptide with C-terminal biotin
T1 peptide (looked up): LDYDFLPE-biotin

[1] = target: T2, Biotin sY51 PSGL-1(42-62) peptide (human, sulfotyrosine at Y51; C-terminal Lys-biotin); test: ELISA, plate-bound mAb captures biotin peptide
T2 construct: also called Y51(SO3) PSGL-1(42-62)
T2 peptide: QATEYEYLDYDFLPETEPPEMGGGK
Protocol: (§1) Two ELISA methods were performed. One procedure detected mAb binding to its plate-immobilized target and the other measured the immobilized antibody's ability to capture biotinylated PSGL-1₄₂₋₆₂. […] The plate was incubated for 45 min at 37° C. Plates were washed 3 times with wash buffer (PBS containing 0.05% tween 20, pH 7.4) and a single concentration (2 to 500 nM) or serially diluted (0.002-100 nM) anti-PSGL-1 mAb was added (25 ul/well) in assay buffer into appropriate wells. The plate was incubated for 45 min at 37° C., washed 3 times, and an appropriate HRP-conjugated secondary antibody added (25 ul/well) (HRP goat anti-mouse or anti-human IgG). After 45 min incubation at 37° C., the plate was washed, and antibody bound to plate-immobilized target was determined at A450 nm using HRP substrate (3,3′,5,5′-etramethylbenzidine (TMB)). For each antibody, duplicate values were averaged and assay background was subtracted. Except for the following, ELISAs involving plate-immobilized mAb capturing of biotinylated PSGL-1₄₂₋₆₂ peptides was performed in the same manner as described above: 3 ug/mL/25 ul per well of mAb was coated directly onto microtiter plate wells; biotinylated unmodified or sulfotyrosine PSGL-1₄₂₋₆₂ was serially diluted (3 nM-3 uM) into appropriate wells, and antibody-bound peptide was detected using HRP-streptavidin (Jackson Immunoresearch, Cat. #016-030-084).

[2] = target: T3, Biotin Y46,48,51(SO3) PSGL-1(42-62) peptide (human, sulfotyrosine at Y46, Y48 and Y51; C-terminal Lys-biotin); test: ELISA, plate-bound mAb captures biotin peptide
T3 construct: also called fully sulfated N-terminal PSGL-1 peptide
T3 peptide: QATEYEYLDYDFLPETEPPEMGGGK
Protocol: as §1

[3] = target: T4, Biotin sY46 PSGL-1(42-62) peptide (human, sulfotyrosine at Y46; C-terminal Lys-biotin); test: ELISA, plate-bound mAb captures biotin peptide
T4 peptide: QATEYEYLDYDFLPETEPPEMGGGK
Protocol: as §1

[4] = target: T5, Biotin sY48 PSGL-1(42-62) peptide (human, sulfotyrosine at Y48; C-terminal Lys-biotin); test: ELISA, plate-bound mAb captures biotin peptide
T5 construct: also called sY48S
T5 peptide: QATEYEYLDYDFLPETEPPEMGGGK
Protocol: as §1

[5] = target: T6, Biotin PSGL-1(42-62) peptide, unmodified (human, C-terminal Lys-biotin); test: capture ELISA; against 3 x sY peptide
T6 construct: Residues 42-62 followed by GGGK-biotin; also called WT; wild-type
T6 peptide: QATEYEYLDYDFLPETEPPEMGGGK
Protocol: as §1

[6] = target: T7, Recombinant human PSGL-1(ECD)-hFc1 (R&D Systems, Cat. 3345-PS) (human, UniProt Q14242 42-305); test: Octet tandem; competitor 20G13
T7 construct: Bought; Gln42-Val295 counted on AAC50061; also called PSGL-1-Fc; PSGL-1-hFc1 chimera; not shown: human IgG1 Fc, Pro100-Lys330
T7 sequence: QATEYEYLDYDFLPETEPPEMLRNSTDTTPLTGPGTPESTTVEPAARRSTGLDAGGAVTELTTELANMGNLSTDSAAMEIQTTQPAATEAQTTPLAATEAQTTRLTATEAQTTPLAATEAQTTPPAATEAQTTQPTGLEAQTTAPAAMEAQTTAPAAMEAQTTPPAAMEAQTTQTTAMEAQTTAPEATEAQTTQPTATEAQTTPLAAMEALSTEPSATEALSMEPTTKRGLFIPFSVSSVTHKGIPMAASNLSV
Protocol: Antibody binning was performed by ForteBio Octet® using a tandem assay format, with anti-human IgG biosensor-immobilized PSGL-1(ECD)-hFc1 protein, binding of competitor mAb followed by analyte antibody. As competition controls, the same antibody was competed against itself, and mAb competition was performed bidirectionally.
Antibody binning by tandem octet was performed by immobilizing 10 ug/mL PSGL-1(ECD)-hFc1 (R&D Systems, Cat. #3345-PS) in PBS, pH 7.4, onto anti-human IgG capture biosensors (ForteBio, Cat. #18-5060), binding of 100 nM competitor antibody for 300 sec., followed by binding of 100 nM of analyte mAb for 300 s in kinetic buffer (0.1% BSA in PBS containing 0.02% tween 20 and 0.05% sodium azide, pH 7.4). Synagis (Johnson et al. (1997) J. Infect. Dis. 176:1215-1224) served as a negative control mAb for competition. An Fc quench step (0.25 mg/mL human IgG Fcl; BioXcell, Cat. #BE0096, in kinetic buffer) was included when human mAbs were tested to prevent high background from the antibodies binding to the anti-human IgG biosensor. Biosensor regeneration buffer consisted of 10 mM glycine, pH 2.0.

[7] = target: PSGL-1(ECD)-hFc1 S116A protein (Sino Biological) (human); test: ELISA; against WT PSGL-1(ECD)-hFc1
Protocol: (§2) A typical ELISA experiment involved binding of a single concentration or serially diluted mAb in assay buffer (3% BSA in PBS containing 0.05% Tween®20, pH 7.4) onto BSA blocked high binding microtiter plate half-wells (Corning Cat. #3690), which contained PSGL-1 protein or streptavidin-immobilized biotin peptide. After incubation for 45 min. at 37° C., the plate was washed 3 times with wash buffer (PBS containing 0.05% Tween®20, pH 7.4), and an appropriate HRP-conjugated secondary antibody added (25 ul/well) (HRP goat anti-mouse or anti-human IgG). After 45 min. incubation at 37° C., the plate was washed and antibody bound to plate-immobilized target was determined at A450 nm using HRP substrate (3,3′5,5′-tetramethylbenzidine (TMB)). For each antibody, duplicate values were averaged and assay background subtracted.

[8] = target: PSGL-1(ECD)-hFc1 M119A protein (Sino Biological) (human); test: ELISA; against WT PSGL-1(ECD)-hFc1
Protocol: as §2

[9] = target: PSGL-1(ECD)-hFc1 I121A protein (Sino Biological) (human); test: ELISA; against WT PSGL-1(ECD)-hFc1
Protocol: as §2

B1: 16L15 (antibody, V domains shown)
VH: DVKLVESGGGLVKLGGSLKLSCAASGFTFSSYYMSWVRQTPEKRLEWVATISNGGGSTYYPDSVKDRFTISRDNAKNTLYLQMSSLNSEDTAVYYCAKPLYYSNPWFAYWGQGTLVTVSA
VL: DVLLTQTPLSLPVSLGDQASISCRSSQSIVHSNGNTYLEWYLQKPGQSPKLLIYKVSNRFSGVPDRFSGSGSGTDFTLKISRVEAEDLGVYYCFQGSHVPRTFGGGTKLEIK
notes: From mouse immunisation; only variable domains given
Does B1 bind (PSGL-1(49-56)-Biotin)?
Result: no binding (tested: Log M -7.7 (about 20 nM))

B2: 10F01 (antibody, IgG4, V domains shown)
VH: EVQLVQSGGGLVQPGGSLRLSCAASGFTFSSYAMSWVRQAPGKGLEWVSALRGGDGGTYHADSVKGRFTISGDSSKNTLYLQMNSLRAEDTAVYYCARRMVGAAYAFDIWGQGTMVTVSS
VL: LPVLTQPHSVSESPGKTVTISCTRSSGSIADNFVQWYRQRPGSAPTTVIYEGDQRPSGVPGRFSGSIDSSSNSASLTISGLQTDDEADYYCQSFDSYNRRTHVVFGGGTKLTVL
With B2 as the binder, how does the EC50 [1] read?
The EC50 was 36.2 nM.

What about the EC50 [2] of the same binder?
The EC50 was roughly 1 nM.

And the EC50 [3]?
The EC50 was roughly 2000 nM.

What about the EC50 [4] of the same binder?
The EC50 was roughly 3000 nM.

B3: 03D07 (antibody, IgG4, V domains shown)
VH: EVKLLESGGGLVQPGGSLRLSCAASGFTFSSYALSWVRQAPGKGLEWVSAISGSGGNTYYADSVKGRFTISRDNSKNTLYLQMNSLRAEDTAVYYCAKVVGATNYWGQGTLVTVSS
VL: DIVMTQTPLSLPVTLGQPASISCRSSQSLVYSDGHTYLSWFHQRPGQSPRRLIYKVSIRDSGVPDRFSGSGSGTDFTLKISRVEAEDVGVYYCMQRLQIPLTFGGGTKVEIK
B3 was tested. Which “EC50/EC50 3x(SO3)Y” value [5] did it give?
Its value is greater than 100 fold.

And the EC50 [1]?
Its EC50 is roughly 2000 nM.

And the “fold stronger binding than to the unmodified peptide” value [1]?
The value was roughly 10 fold.

What about the EC50 [2] of the same binder?
Its EC50 is 39.4 nM.

What about the EC50 [3] of the same binder?
The EC50 was 971 nM.

And the “fold stronger binding than to the unmodified peptide” value [3]?
Its value is roughly 10 fold.

What about the EC50 [4] of the same binder?
The EC50 was greater than 3000 nM.

B4: 20I15 (antibody, V domains shown)
VH: EVKLVESGGGLVQPGGSLSLSCAASGFTFTDYYMSWVRQPPGKALEWLGFIRNKANGYTTEYSASVKGRFTISRDNSQSILYLQMNALRAEDSATYYCARTYLRRGYFDVWGTGTTVTVSS
VL: DIVLTQSPASLAVSLGQRATISCRASKSVSTSGYSYMHWFQQKPGQPPKLLIYLASNLESGVPARFSGSGSGTDFTLNIHPVEEEDAATYYCQHSRELPLTFGAGTKLELK
notes: From mouse immunisation; only variable domains given; also called 20115
How did the “EC50/EC50 3x(SO3)Y” value [5] turn out when B4 was run?
The value was roughly 10 fold.

And the EC50 [1]?
Its EC50 is roughly 3000 nM.

What about the EC50 [2] of the same binder?
The EC50 was 292 nM.

What about the EC50 [3] of the same binder?
Its EC50 is roughly 3000 nM.

And the EC50 [4]?
The EC50 was roughly 3000 nM.

B5: 43B6 (antibody, V domains shown)
VH: EVQLQQSGPDLVKPGALVKISCKASGYSFTAYYIHWVKQSHGKSLEWIGRVNPNTGGTSYNPKFKGKAILNVDKSSSTAYMELRSLTSEDSAVYYCARSGSPYYRYDDWGQGTTLTVSS
VL: ENVLTQSPAIMSASPGEKVTMTCRASSTVNSTYLHWFQQKSGASPKLWIYGSSNLASGVPARFSGSGSGTSYSLTISSVEAEDAATYYCQQYSGYPLTFGAGTTLELK
notes: Control anti-PSGL-1 mAb, recombinant; only variable domains given; also called 43B3
B5 was tested. Which “EC50 (read off the curve)” value (PSGL-1(49-56)-Biotin) did it give?
Its value is roughly 0.4 nM.

B6: 16E17 (antibody, V domains shown)
VH: QIQLVQSGPELKKPGETVKISCKASGYAFTTYGMSWVKQAPGKGLKWMGWINTYSGVPKYADDFKGRFAFSLETSASTAYLHINNLKNEDTATYFCGRHYYGSSYFDYWGQGTTLTVSS
VL: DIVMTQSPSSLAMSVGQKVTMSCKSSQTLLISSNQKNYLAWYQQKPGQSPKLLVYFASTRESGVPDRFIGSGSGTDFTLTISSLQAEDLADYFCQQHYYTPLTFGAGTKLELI
notes: as for B1
Which results are given for B6?
% binding of analyte mAb [6]: 32.4%; EC50/EC50WTprot [7]: 1.45 fold; EC50/EC50WTprot [8]: 1.58 fold; EC50/EC50WTprot [9]: 2.8 fold

B7: 18K07 (antibody, V domains shown)
VH: QIQLVQSGPELKKPGETVKISCEASGYTFTTYGMNWVKQAPGKGLKWMGWINTYSGVPTYADDFQGRFAFSVETSATTAYLQINNLKNEDAATYFCARSDDTYYGFAYWGQGTLVTVSA
VL: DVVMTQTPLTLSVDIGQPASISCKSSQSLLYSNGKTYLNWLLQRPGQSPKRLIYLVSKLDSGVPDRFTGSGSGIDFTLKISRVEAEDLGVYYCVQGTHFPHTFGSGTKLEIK
notes: as for B1
What does the source list for B7?
% binding of analyte mAb [6]: 0%; EC50/EC50WTprot [7]: 1.02 fold; EC50/EC50WTprot [8]: 0.81 fold; EC50/EC50WTprot [9]: 0.89 fold

B8: 19L04 (antibody, IgG4, V domains shown)
VH: B6 VH with A28T, K59T, H82Q, N88I, G97A, S104H
VL: DIMMTQSPSSLAMSVGQKVTLRCKSSQSLLNSSNQKNYLAWYQQKPGQSPKLLVYFASTRESGVPVRFIGSGSGTDFTLTISSMQAEDLADYFCQQHYFSPLTFGAGTKLELK
notes: as for B1
What does the source list for B8?
% binding of analyte mAb [6]: 0%; EC50/EC50WTprot [7]: 1.44 fold; EC50/EC50WTprot [8]: 1.26 fold; EC50/EC50WTprot [9]: 1.42 fold

B9: 19N05 (antibody, V domains shown)
VH: B6 VH with A28T, K59T, Y60F, H82Q, Y94F, G97A, H99N, S103N, S104H
VL: DVQITQSPSYLAASPGETISINCRASNNINKYLAWYQEKPGKTNKLLIYSGSTLQSGIPSRFSGSGSGTDFTLTISSLEPEDFAMYHCQQHNYYPLTFGAGTKLELK
notes: as for B1
With B9 as the binder, how does the “% binding of analyte mAb” value [6] read?
The value was 0%.

And the EC50/EC50WTprot [7]?
Its EC50/EC50WTprot is 1.43 fold.

And the EC50/EC50WTprot [8]?
Its EC50/EC50WTprot is 1.34 fold.

What about the EC50/EC50WTprot [9] of the same binder?
Its EC50/EC50WTprot is 1.39 fold.
